One experiment deals with T1, fetuin (UniProt P12763 19-359).
T1 sequence (looked up): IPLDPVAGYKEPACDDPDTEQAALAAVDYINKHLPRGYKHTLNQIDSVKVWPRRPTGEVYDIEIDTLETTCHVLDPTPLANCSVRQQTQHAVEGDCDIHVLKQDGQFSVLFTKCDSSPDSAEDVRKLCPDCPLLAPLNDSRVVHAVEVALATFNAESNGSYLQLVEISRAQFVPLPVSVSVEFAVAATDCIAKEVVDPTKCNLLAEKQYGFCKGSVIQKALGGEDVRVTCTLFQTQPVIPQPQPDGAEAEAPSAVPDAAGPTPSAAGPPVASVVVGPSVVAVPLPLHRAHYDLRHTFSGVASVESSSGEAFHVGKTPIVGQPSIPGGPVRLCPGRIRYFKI
The experiment in a line: SPR; Biacore 3000; odorranalectin immobilised on sensor chip CM-5 by amine coupling, glycoproteins as analytes diluted in HBS-EP (10 mM HEPES-buffered saline, 3 mM EDTA, 0.005% surfactant P-20, pH 7.4); 1:1 binding model; KD calculated from ka and kd. The settings on record: both partners purified.

Experiment [1] deals with Bovine submaxillary mucin (bovine, heavily O-glycosylated (sialylated) mucin preparation; the polypeptide is not given, and the main bovine submaxillary mucin (MUC19) is assumed with limits from the CHAIN feature; the pre). Described as above. The settings on record: both partners purified.

B1: odorranalectin (peptide)
peptide: YASPKCFRYPNGVLACT
notes: odorranalectin, mature 17-residue peptide at the C-terminus of the 61-residue precursor, Odorrana grahami; follows the di-basic site K42R43 of the precursor; One intramolecular disulfide bond Cys6-Cys16; Immobilised on a CM-5 chip by amine coupling; Details of purification and synthesis are in Materials and Methods S1; also called lectin-like peptide; source: purified from O. grahami skin …
Consider B1, for which the Kd in the experiment with fetuin was 211 nM; in experiment [1], 2900 nM.

Source of the values: article PMC2440032, “Odorranalectin Is a Small Peptide Lectin with Potential for Drug Delivery and Targeting” (PLoS ONE, 2008).
